Among the data in paper PMC2568807 are attenuation of oCRY1 repression of oCLK/oBM1-induced oRev-erb alpha luciferase reporter transactivation in COS7 cells (100 or 200 ng Fbxl vector) values, retold here.

In this assay the target is ovine CRY1 (Cryptochrome 1), Flag-tagged (sheep).

Turning to “ovine Fbxl21 full-length, Myc-tagged (from UniProt B3FL73 1-434) (natural protein)”, the attenuation of oCRY1 repression of oCLK/oBM1-induced oRev-erb alpha luciferase reporter transactivation in COS7 cells (100 or 200 ng Fbxl vector) came to 75%.
